Values belong to the binder of their own block, whether it stands above or below them.
Tests used:
PD-L1 [1] = target: T1, PD-L1 (human, UniProt Q9NZQ7); test: FACS, 4C
PD-L1 [2] = target: T1, PD-L1; test: competition, FACS blocking of biotin-PD-1, 4C
SSTR4 = SSTR4 (human, UniProt P31391); test: FACS, membrane proteome array titration
rhPD-L1 = rhPD-L1 (human, UniProt Q9NZQ7); test: ELISA
Chain of rhPD-L1 (Q9NZQ7 19-238): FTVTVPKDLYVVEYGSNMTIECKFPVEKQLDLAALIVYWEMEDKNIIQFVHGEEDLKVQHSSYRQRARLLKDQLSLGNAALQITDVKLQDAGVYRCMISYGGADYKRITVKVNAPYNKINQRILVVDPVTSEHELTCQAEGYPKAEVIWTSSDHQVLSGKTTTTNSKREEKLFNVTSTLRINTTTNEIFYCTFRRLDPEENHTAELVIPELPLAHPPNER

T1 sequence (Q9NZQ7 19-238): as above
Chain of SSTR4 (P31391 whole entry): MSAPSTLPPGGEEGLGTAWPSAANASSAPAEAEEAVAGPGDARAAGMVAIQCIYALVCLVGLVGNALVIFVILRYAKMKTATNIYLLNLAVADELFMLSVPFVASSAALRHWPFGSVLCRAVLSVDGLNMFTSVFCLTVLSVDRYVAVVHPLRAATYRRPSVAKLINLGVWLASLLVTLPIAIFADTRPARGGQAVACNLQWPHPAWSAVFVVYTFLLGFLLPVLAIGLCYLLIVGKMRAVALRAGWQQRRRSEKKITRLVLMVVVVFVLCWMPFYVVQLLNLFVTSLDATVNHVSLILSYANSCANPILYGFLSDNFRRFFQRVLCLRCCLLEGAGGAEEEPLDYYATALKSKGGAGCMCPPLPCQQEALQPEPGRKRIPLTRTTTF

Kd (PD-L1 [1]): 0.058 µg/mL
EC50 (PD-L1 [2]): 0.058 µg/mL
binding result (SSTR4): no binding
Kd (rhPD-L1): 0.036 µg/mL
B1: TCRC-L8 (antibody, V domains shown)
VH: QVQLQESGPGLVKPSETLSLTCTVSGDSITSGYWNWIRQPPGKGLEYMGYISFTGSTYYNPSLKSRVTISVDTSKNQFSLKLSSVTAADTAVYYCARKREWILHPMDYWGQGTLVTVSS
VL: AIQLTQSPSSLSASVGDRVTITCSASSSVSYMHWYQQKPGKAPKLWIYDTSKLASGVPSRFSGSGSGTDFTLTISSLQPEDFATYYCFQESGYPLTFGGGTKLTVL

Kd (PD-L1 [1]): 0.074 µg/mL
EC50 (PD-L1 [2]): 0.074 µg/mL
Kd (rhPD-L1): 0.04 µg/mL
B2: TCRC-L2 (antibody, V domains shown)
VH: EVQLQESGPSLVKPSQTLSLTCSVTGDSITSGYWNWIRKFPENKLEYMGYISFTGSTYYNPSLKSRISITRDTSKNQYYLQLNSVTTEDTATYYCARKREWILHPMDYWGQGTSVTVSS
VL: ENVLTQSPAIMSASPGEKVTMTCSASSSVSYMHWYQQKSLTSPKLWIYDTSKLASGVPGRFSGSGSGNFYSLTISSMEAEDVATYYCFQESGYPLTFGAGTKLELK

From patent US20260317389 (published 2026)
